Data taken from doi:10.1101/2024.01.16.575832, “Heterodimerization of Endolysin Isoforms During Bacterial Infection by Staphylococcal Phage φ2638A” (bioRxiv, 2024).

T1: full-length Ply2638A endolysin (PlyFL) (Staphylococcus pseudintermedius phage …, UniProt Q4ZD58 1-486)
T1 construct: Endolysin Ply2638A of Staphylococcus pseudintermedius phage φ2638A, full length (M23 endopeptidase, central amidase, C-terminal SH3b CBD; SH3b domain is residues 393-486); internal start codon TTG at Leu180 silently changed to CTC so that only the FL isoform is made; expected mass 55.5 kDa; The TTG>CTC change at Leu180 is silent (Leu to Leu); Purified as a protein without a His-tag; In the SEC of …
T1 sequence (looked up): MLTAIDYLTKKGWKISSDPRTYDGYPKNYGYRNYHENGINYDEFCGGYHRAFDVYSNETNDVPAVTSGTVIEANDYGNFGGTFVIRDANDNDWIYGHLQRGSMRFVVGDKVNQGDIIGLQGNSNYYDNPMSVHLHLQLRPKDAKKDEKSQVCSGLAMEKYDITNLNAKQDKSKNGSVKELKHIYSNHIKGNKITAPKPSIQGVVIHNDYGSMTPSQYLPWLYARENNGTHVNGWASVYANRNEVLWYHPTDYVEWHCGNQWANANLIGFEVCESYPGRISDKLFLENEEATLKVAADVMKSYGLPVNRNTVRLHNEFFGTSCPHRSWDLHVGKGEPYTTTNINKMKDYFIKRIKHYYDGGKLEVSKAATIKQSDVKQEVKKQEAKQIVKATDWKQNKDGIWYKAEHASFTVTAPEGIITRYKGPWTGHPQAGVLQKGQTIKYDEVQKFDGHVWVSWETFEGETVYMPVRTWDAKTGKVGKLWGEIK

B1: Ply2638A short variant isoform (PlySV) (domain or fragment, UniProt Q4ZD58 180-486, looked up)
chain: LKHIYSNHIKGNKITAPKPSIQGVVIHNDYGSMTPSQYLPWLYARENNGTHVNGWASVYANRNEVLWYHPTDYVEWHCGNQWANANLIGFEVCESYPGRISDKLFLENEEATLKVAADVMKSYGLPVNRNTVRLHNEFFGTSCPHRSWDLHVGKGEPYTTTNINKMKDYFIKRIKHYYDGGKLEVSKAATIKQSDVKQEVKKQEAKQIVKATDWKQNKDGIWYKAEHASFTVTAPEGIITRYKGPWTGHPQAGVLQKGQTIKYDEVQKFDGHVWVSWETFEGETVYMPVRTWDAKTGKVGKLWGEIK
notes: expected mass 35.3 kDa; the C-terminal SH3b domain ends at residue 486; The first residue may be Met when translation starts at the TTG codon or in the recombinant construct (surmise); also called SV isoform; short variant (SV); source: E. coli, purified (cation exchange chromatography, SEC); also co-produced with the FL isoform from pET302_PlyWT (PlyWT), purified the same way
B2: central amidase domain of Ply2638A (Ami) (domain or fragment, UniProt Q4ZD58 180-359, looked up)
chain: LKHIYSNHIKGNKITAPKPSIQGVVIHNDYGSMTPSQYLPWLYARENNGTHVNGWASVYANRNEVLWYHPTDYVEWHCGNQWANANLIGFEVCESYPGRISDKLFLENEEATLKVAADVMKSYGLPVNRNTVRLHNEFFGTSCPHRSWDLHVGKGEPYTTTNINKMKDYFIKRIKHYYDG
notes: Endolysin Ply2638A of phage φ2638A, central N-acetylmuramoyl-L-alanine amidase domain, residues 180-359 (Leu180-Gly359); The limits are printed for the construct used in crystallisation trials; also called amidase domain alone; source: E. coli, purified (cation exchange chromatography, SEC)

Key:
[1] = target: T1, full-length Ply2638A endolysin (PlyFL); assay: SEC-MALS; 1:3 (w/w) mixture of PlyFL and PlySV at 1 mg/mL, Superdex 200 10/30, 10 mM HEPES, 150 mM NaCl, 3.4 mM EDTA, 0.005 % Tween20, pH 7.4; conditions: both partners purified
[2] = target: T1, full-length Ply2638A endolysin (PlyFL); assay: SPR; Biacore X, PlyFL immobilised by amine coupling on a CMD500L chip; analytes at 750 nM, 1 μM, 2.5 μM and 5 μM, 10 μL/min, running buffer PBS pH 7.4; steady state not attained; conditions: both partners purified

Binder | stoichiometry N [1] [PlySV per PlyFL] | binding result [2]
B1 | 1 | 
B2 |  | binds
